Results as given in patent publication US20240374745A1.

Experiments:
CTLA-4-hFc = experiment: BLI, immobilized CTLA-4-hFc; untreated sample before LRP1 depletion
PD-1-hFc (human) = experiment: BLI, immobilized PD-1-hFc; untreated sample before LRP1 depletion
PD-1-hFc (human), sequence (chain, as listed by the source limits assumed): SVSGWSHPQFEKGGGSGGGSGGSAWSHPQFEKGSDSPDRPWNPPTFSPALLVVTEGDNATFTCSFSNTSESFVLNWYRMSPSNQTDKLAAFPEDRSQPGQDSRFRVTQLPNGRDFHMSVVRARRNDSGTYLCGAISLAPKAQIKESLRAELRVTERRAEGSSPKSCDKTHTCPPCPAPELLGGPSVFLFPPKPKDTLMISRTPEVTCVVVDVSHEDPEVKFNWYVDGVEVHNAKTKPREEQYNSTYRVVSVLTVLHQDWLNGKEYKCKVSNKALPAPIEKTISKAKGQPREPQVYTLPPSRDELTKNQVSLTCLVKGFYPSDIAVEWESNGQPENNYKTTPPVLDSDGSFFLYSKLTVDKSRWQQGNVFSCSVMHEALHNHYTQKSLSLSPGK

CTLA-4-hFc, sequence (chain, as listed by the source limits assumed): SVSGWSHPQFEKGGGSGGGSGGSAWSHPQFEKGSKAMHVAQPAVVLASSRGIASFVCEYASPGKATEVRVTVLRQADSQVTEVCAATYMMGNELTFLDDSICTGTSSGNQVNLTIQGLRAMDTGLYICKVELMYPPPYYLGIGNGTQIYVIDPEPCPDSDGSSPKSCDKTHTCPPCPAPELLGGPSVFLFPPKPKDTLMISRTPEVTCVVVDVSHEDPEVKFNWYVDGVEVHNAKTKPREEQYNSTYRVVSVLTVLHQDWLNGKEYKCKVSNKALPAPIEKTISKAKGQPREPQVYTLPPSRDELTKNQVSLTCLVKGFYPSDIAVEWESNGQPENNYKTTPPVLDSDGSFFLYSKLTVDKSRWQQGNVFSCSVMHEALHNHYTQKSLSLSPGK

percent of the maximum binding defined by thermolysin activation (CTLA-4-hFc) [%]	percent of the maximum binding defined by thermolysin activation (PD-1-hFc (human)) [%]	Substance
25		A2M-Ipilimumab, untreated (native conformation)
	25	A2M-Nivolumab, untreated (native conformation)
